Each block holds one binder with its values, some of them ahead of it.
Key:
[1] = molecular target: T1, prolyl-4-hydroxylase 2 (PHD2) (human, UniProt Q9GZT9 2-426, limits assumed); assay: preliminary experiments, method not described
T1 construct: Endogenous protein in human placental tissues

HIF-1αP402R-P564R = assay: Western blot of lysates of transfected JEG3 cells, β-actin as loading control
Procedure: Thus, the antibodies may be useful in predicting the severity of preeclampsia. The monoclonal antibodies were affinity purified, their IgG isotype was determined and their specificity validated (see Table 2 and FIGS. 7 and 8). The antibodies were validated using the following strategy. […] Following transfection with the various HIF-1α constructs, JEG-3 choriocarcinoma and HEK293 cells were cultured with proteosomal inhibitor MG-132 to prevent HIF degradation and Western blot and immunofluorescence analyses were used to establish the specificity and utility of the various clones. Validation experiments were run in parallel using both purified and non-purified clones to rule out potential changes in antibody performance following purification. The Western blot results unequivocally indicate that clones 1H1, 6H4 and 5A5 recognize HIF-P402^OH; clone 6A9 recognizes HIF-P564^OH; clone 7D6 recognizes both HIF-P402^OH and HIF-P64^OH; and clone 7E3 is excellent to detect total HIF-1α. […] Immunofluorescence analysis was conducted in cells and tissue sections.

T1 sequence (Q9GZT9 2-426 limits assumed): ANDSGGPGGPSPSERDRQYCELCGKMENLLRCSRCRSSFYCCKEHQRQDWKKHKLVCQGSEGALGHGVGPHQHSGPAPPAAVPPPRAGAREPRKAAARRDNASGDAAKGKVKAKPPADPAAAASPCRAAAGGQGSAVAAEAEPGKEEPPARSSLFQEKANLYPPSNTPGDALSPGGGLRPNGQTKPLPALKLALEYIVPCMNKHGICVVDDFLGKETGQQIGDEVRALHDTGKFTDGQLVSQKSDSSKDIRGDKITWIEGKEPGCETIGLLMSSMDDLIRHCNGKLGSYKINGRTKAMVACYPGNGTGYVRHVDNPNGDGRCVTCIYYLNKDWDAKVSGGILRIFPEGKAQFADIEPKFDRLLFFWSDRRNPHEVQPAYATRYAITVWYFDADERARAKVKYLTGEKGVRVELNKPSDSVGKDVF
Sequence of HIF-1αP402R-P564R (chain, as listed by the source P402R P564R P402R P564R limits assumed): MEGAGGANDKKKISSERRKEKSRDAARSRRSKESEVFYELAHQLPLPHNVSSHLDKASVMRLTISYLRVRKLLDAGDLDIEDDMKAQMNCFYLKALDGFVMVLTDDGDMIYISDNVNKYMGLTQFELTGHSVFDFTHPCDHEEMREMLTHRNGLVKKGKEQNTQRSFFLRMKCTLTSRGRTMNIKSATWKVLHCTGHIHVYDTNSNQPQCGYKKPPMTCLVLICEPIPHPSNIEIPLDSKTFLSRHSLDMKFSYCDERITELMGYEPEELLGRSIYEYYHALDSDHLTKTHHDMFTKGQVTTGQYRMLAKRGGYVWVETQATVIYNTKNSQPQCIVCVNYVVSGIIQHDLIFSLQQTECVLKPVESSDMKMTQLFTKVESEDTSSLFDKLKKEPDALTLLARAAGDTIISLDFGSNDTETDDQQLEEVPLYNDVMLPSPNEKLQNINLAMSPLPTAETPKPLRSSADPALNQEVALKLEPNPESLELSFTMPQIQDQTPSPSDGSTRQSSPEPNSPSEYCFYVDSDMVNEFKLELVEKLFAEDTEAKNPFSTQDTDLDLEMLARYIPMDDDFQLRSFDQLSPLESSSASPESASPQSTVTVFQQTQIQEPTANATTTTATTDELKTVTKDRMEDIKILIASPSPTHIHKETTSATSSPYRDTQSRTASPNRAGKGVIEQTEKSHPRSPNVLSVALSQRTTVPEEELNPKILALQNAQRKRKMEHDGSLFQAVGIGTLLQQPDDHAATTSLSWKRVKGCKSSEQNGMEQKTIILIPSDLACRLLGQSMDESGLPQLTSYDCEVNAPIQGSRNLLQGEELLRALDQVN

binding result [1]: binds
B1: prolyl-4-hydroxylase 3 (PHD3) (enzyme, human, UniProt Q9H6Z9 1-239, looked up)
chain: MPLGHIMRLDLEKIALEYIVPCLHEVGFCYLDNFLGEVVGDCVLERVKQLHCTGALRDGQLAGPRAGVSKRHLRGDQITWIGGNEEGCEAISFLLSLIDRLVLYCGSRLGKYYVKERSKAMVACYPGNGTGYVRHVDNPNGDGRCITCIYYLNKNWDAKLHGGILRIFPEGKSFIADVEPIFDRLLFFWSDRRNPHEVQPSYATRYAMTVWYFDAEERAEAKKKFRNLTRKTESALTED
notes: Endogenous protein in human placental tissues; the method of the preliminary experiment is not described

binding result (HIF-1αP402R-P564R): no binding
B2: monoclonal antibody clone 6A9 (antibody, V domains shown)
VH: DVQLVESGGGLVQPGGSRKLSCAASGFTFSSFGMHWVRQAPEKGLEWVAFISSGSHTIFYADTVKGRFTISRDNPKNTLFLQMTSLRSEDTAMYYCTRDYNAYWGQGTLVTVSA
VL: DVLMTQTPLSLPVSLGDQASISCRSSQSIVHSNGNTYLEWYLQKPGQSPKLLIYKVSNRFSGVPDRFSGSGSGTDFTLKISRVEAEDLGVYYCFQGTHVPLTFGAGTKLEL
notes: also called anti-HIF-1αP564^OH
